# Experimental data taken from US20230382970A1 (HANMI PHARM, published 2023).
# Bridge positions count the residues as written; N and C are the ends. Square brackets hold non-standard residues; d marks the D form. Ends that are not written are not given here. * marks the point of attachment. Desaminotyrosyl = O=C(CCc1ccc(O)cc1)*; Nle = CCCC[C@H](N)C(=O)O; Aib = CC(C)(N)C(=O)O
# T1: human GIP receptor (human, UniProt P48546 22-466)
# T1 sequence (looked up): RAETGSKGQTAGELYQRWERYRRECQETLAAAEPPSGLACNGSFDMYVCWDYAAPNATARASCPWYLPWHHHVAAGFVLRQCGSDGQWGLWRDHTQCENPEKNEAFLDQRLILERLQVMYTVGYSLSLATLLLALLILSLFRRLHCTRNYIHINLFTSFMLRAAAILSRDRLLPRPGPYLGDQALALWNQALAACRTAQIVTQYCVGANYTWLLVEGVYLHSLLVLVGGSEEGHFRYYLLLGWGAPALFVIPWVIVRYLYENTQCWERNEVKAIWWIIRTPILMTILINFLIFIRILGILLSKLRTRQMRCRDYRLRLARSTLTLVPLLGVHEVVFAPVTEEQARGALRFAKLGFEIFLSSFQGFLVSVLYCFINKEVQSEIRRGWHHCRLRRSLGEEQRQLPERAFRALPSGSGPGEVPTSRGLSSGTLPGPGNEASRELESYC
# Target: human GLP-1 receptor (human, UniProt P43220 24-463)
# Assay: cell-based or functional assay
row,Binder,"In vitro activity (%) compared to native-type peptide, vs human GLP-1 (cAMP EC50, human GLP-1 receptor-expressing CHO cells)"
1,[Desaminotyrosyl][Aib]EGTFISDYSIALE[Nle]QAQQDFVNWLLAGGPSSGAPPPSK [GLP-1/GIP dual agonist of SEQ ID NO: 44],1.4%
2,Y[Aib]EGTFTSDYSI[Aib]LDKQHA[Aib]AFVQWLIAGGPSSGAPPPSC [GLP-1/GIP dual agonist of SEQ ID NO: 35],9.6%
3,Y[Aib]EGTFTSDYSI[Aib]LDKQAQQAFVQWLIAGGPSSGAPPPSC [GLP-1/GIP dual agonist of SEQ ID NO: 36],79.9%
4,Y[Aib]EGTFTSDYSIALEKQAQRDFVNWLLAGGPSSGAPPPSC [GLP-1/GIP dual agonist of SEQ ID NO: 40],97.7%
5,Y[Aib]EGTFTSDYSI[Aib]LEKQAQQDFVNWLLAGGPSSGAPPPSC [GLP-1/GIP dual agonist of SEQ ID NO: 38],14.3%
6,[Desaminotyrosyl][Aib]EGTFTSDYSI[Aib]LDAQAA[Aib]AFVQWLIAGGPSSGAPPPSK [GLP-1/GIP dual agonist of SEQ ID NO: 41],117%
7,Y[Aib]EGTFTSDYSKYLDEIRAKDFVQWLLDHHPSSGQPPPC (bridge 16-20) [GLP-1/GIP dual agonist of SEQ ID NO: 4],1.9%
8,[Desaminotyrosyl][Aib]EGTFTSDYSI[Aib]LD[Nle]QAA[Aib]AFVQWLIAGGPSSGAPPPSK [GLP-1/GIP dual agonist of SEQ ID NO: 42],69.5%
9,Y[Aib]EGTFTSDYSIALEKQAA[Aib]DFVNWLLAGGPSSGAPPPSC [GLP-1/GIP dual agonist of SEQ ID NO: 39],15.9%
10,Y[Aib]EGTFTSDYSI[Aib]LDKQAQQ[Aib]FVQWLIAGGPSSGAPPPSC [GLP-1/GIP dual agonist of SEQ ID NO: 37],45.2%
11,[Desaminotyrosyl][Aib]EGTFISDYSIALEAQAQQDFVNWLLAGGPSSGAPPPSK [GLP-1/GIP dual agonist of SEQ ID NO: 43],1.2%

# Target: T1, human GIP receptor
# Assay: cell-based or functional assay
row,Binder,"In vitro activity (%) compared to native-type peptide, vs human GIP (cAMP EC50, human GIP receptor-expressing CHO cells)"
1,[Desaminotyrosyl][Aib]EGTFISDYSIALE[Nle]QAQQDFVNWLLAGGPSSGAPPPSK [GLP-1/GIP dual agonist of SEQ ID NO: 44],74.2%
2,Y[Aib]EGTFTSDYSI[Aib]LDKQHA[Aib]AFVQWLIAGGPSSGAPPPSC [GLP-1/GIP dual agonist of SEQ ID NO: 35],64.2%
3,Y[Aib]EGTFTSDYSI[Aib]LDKQAQQAFVQWLIAGGPSSGAPPPSC [GLP-1/GIP dual agonist of SEQ ID NO: 36],217%
4,Y[Aib]EGTFTSDYSIALEKQAQRDFVNWLLAGGPSSGAPPPSC [GLP-1/GIP dual agonist of SEQ ID NO: 40],181%
5,Y[Aib]EGTFTSDYSI[Aib]LEKQAQQDFVNWLLAGGPSSGAPPPSC [GLP-1/GIP dual agonist of SEQ ID NO: 38],216%
6,[Desaminotyrosyl][Aib]EGTFTSDYSI[Aib]LDAQAA[Aib]AFVQWLIAGGPSSGAPPPSK [GLP-1/GIP dual agonist of SEQ ID NO: 41],58.7%
7,Y[Aib]EGTFTSDYSKYLDEIRAKDFVQWLLDHHPSSGQPPPC (bridge 16-20) [GLP-1/GIP dual agonist of SEQ ID NO: 4],18.5%
8,[Desaminotyrosyl][Aib]EGTFTSDYSI[Aib]LD[Nle]QAA[Aib]AFVQWLIAGGPSSGAPPPSK [GLP-1/GIP dual agonist of SEQ ID NO: 42],35.9%
9,Y[Aib]EGTFTSDYSIALEKQAA[Aib]DFVNWLLAGGPSSGAPPPSC [GLP-1/GIP dual agonist of SEQ ID NO: 39],144%
10,Y[Aib]EGTFTSDYSI[Aib]LDKQAQQ[Aib]FVQWLIAGGPSSGAPPPSC [GLP-1/GIP dual agonist of SEQ ID NO: 37],174%
11,[Desaminotyrosyl][Aib]EGTFISDYSIALEAQAQQDFVNWLLAGGPSSGAPPPSK [GLP-1/GIP dual agonist of SEQ ID NO: 43],109%
